This is an account of results in patent US20120149060A1 (EUROPAISCHES LABORATORIUM FUR MOLEKULARBIOLOGIE EMBL, published 2012).

In assay [1] the target is T1, Von Hippel Lindau protein (amino acids 54-213), fused at its N-terminus to a six-histidine-thioredoxin fusion … (human, UniProt P40337 54-213).
T1 construct: range 54-213; Subunit of the VHLbc complex, expressed from the pACE-VHLbc tricistron; also called VHL; HisTrxVHL; not shown: N-terminal six-histidine-thioredoxin fusion tag
Briefly: co-expression in E. coli, Ni2+ affinity capture by the tag on VHL, SDS-PAGE.

Assay [2] concerns the target T2, full-length human RAP74 with a C-terminal oligo-histidine tag (human, UniProt P35269 1-517).
T2 construct: Stated to be full-length; co-expressed with RAP30 in E. coli BL21(DE3); also called hRAP74; RAP74his; not shown: C-terminal oligo-histidine tag
T2 sequence (looked up): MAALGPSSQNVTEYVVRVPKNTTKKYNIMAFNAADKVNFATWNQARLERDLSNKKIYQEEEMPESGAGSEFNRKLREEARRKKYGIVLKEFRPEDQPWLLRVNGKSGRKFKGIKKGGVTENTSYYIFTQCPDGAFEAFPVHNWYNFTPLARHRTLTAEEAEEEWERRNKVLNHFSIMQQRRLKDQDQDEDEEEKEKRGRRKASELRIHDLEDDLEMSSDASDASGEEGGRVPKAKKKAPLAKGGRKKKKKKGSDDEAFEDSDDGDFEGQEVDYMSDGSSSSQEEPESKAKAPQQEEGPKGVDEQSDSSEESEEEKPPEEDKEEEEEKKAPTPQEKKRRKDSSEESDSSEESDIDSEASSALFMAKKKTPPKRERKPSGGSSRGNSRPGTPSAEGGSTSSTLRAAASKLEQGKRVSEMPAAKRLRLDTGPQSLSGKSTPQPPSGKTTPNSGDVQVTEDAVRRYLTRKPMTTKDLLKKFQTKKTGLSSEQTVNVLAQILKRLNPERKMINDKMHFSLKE
Briefly: co-expression in E. coli, Ni2+ capture by the His tag on RAP74, then S200 size exclusion chromatography. A general note: In gel filtration, larger molecules generally elute earlier.

The next assay has as its target T3, Bud13p (yeast, UniProt P46947 1-266).
T3 construct: Stated to be full-length; subunit of the yeast RES complex
T3 sequence (looked up): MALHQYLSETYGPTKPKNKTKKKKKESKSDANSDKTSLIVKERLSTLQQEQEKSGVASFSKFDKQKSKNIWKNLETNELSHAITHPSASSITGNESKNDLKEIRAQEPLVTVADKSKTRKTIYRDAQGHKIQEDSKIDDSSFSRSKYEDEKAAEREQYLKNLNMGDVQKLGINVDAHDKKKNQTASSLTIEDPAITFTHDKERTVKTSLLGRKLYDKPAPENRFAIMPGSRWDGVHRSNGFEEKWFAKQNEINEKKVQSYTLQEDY
Briefly: co-expression in E. coli, Ni2+ capture by the His6 tag on Snu17p, then S200 size exclusion chromatography.

A further assay has as its target T4, Pml1p (yeast, UniProt Q07930 1-204).
T4 construct: Stated to be full-length; subunit of the yeast RES complex; also called Pm1lp
T4 sequence (looked up): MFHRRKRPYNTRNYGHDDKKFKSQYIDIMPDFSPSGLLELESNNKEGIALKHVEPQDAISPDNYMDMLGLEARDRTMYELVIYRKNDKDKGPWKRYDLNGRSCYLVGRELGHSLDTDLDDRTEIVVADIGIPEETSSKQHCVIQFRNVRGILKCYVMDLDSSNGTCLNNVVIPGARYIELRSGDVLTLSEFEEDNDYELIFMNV
The assay is described as above.

T1 sequence (P40337 54-213): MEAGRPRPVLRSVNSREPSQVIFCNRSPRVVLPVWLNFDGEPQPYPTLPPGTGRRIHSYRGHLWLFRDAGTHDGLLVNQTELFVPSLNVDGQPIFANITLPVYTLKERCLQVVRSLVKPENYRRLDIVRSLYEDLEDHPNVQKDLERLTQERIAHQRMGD

B1: full-length elongin b (other, human, UniProt Q15370 1-118, looked up)
chain: MDVFLMIRRHKTTIFTDAKESSTVFELKRIVEGILKRPPDEQRLYKDDQLLDDGKTLGECGFTSQTARPQAPATVGLAFRADDTFEALCIEPFSSPPELPDVMKPQDSGSSANEQAVQ
notes: Stated to be full-length
Regarding B1, the binding result in assay [1] is “binds”.

B2: full-length human RAP30 (other, UniProt P13984 1-249, looked up)
chain: MAERGELDLTGAKQNTGVWLVKVPKYLSQQWAKASGRGEVGKLRIAKTQGRTEVSFTLNEDLANIHDIGGKPASVSAPREHPFVLQSVGGQTLTVFTESSSDKLSLEGIVVQRAECRPAASENYMRLKRLQIEESSKPVRLSQQLDKVVTTNYKPVANHQYNIEYERKKKEDGKRARADKQHVLDMLFSAFEKHQYYNLKDLVDITKQPVVYLKEILKEIGVQNVKGIHKNTWELKPEYRHYQGEEKSD
notes: Stated to be full-length; also called hRAP30
Regarding B2, the binding result in assay [2] was “binds”.

B3: His6-tagged Snu17p (other, yeast, UniProt P40565 1-148, looked up)
chain: MNKIQQINDKELQSGILSPHQSWHNEYKDNAYIYIGNLNRELTEGDILTVFSEYGVPVDVILSRDENTGESQGFAYLKYEDQRSTILAVDNLNGFKIGGRALKIDHTFYRPKRSLQKYYEAVKEELDRDIVSKNNAEKLILAKKDQPN
notes: Stated to be full-length; subunit of the yeast RES complex; also called Snu17p-NHis; not shown: six-histidine tag fused to the N-terminus
Consider B3, for which the binding result with Bud13p and in the assay with Pml1p was “binds” throughout.
